Source: the supplement of paper PMC6757056
± gives the standard deviation of the averaged measurements.

B1: library; a variant is named by its letters at N, in order (parent)
chain: GCUGUCACCGGUGCUUGGUACGUUAUAUUCAGCCGGUCUGAUGAGUCUNNNNNNAGACGAAACAGC

Legend:
(6R,S)-folinic acid [1] = variants of: B1; assay: normalized RNA/DNA level without ligand (relative to sTRSVctl = 100) (log10 (% of sTRSVctl)); HEK293T overexpressing SLC46A1; higher = less ribozyme self-cleavage, higher mRNA level; conditions: without (6R,S)-folinic acid; ligand present: no
Method in brief: (§1)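 Library plasmids encoding reporter-linked ribozyme switches (mCherry, or eGFP for some folinic acid experiments) were transfected into HEK293T at 4 µg per 6-well well. Ligand, when used, was added 1 h before transfection. Total RNA was extracted with EDTA 72 h later, then reverse-transcribed, amplified, barcoded and sequenced. RNA level was RNA reads over DNA reads, divided by a spiked-in non-cleaving control (or the top 25 sequences), ×100, log10; only sequences with ≥100 DNA reads were kept.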

(6R,S)-folinic acid [2] = variants of: B1; assay: normalized RNA/DNA level with ligand (relative to sTRSVctl = 100) (log10 (% of sTRSVctl)); HEK293T overexpressing SLC46A1; ligand concentration (+) RNA-Seq: 6 mM; higher = less ribozyme self-cleavage, higher mRNA level; conditions: with (6R,S)-folinic acid; ligand present: yes
Method in brief: as §1

## GACUGC
(6R,S)-folinic acid [1]
  normalized RNA/DNA level without ligand (log10): 1.998 ± 0.0095
(6R,S)-folinic acid [2]
  normalized RNA/DNA level with ligand (log10): 2.02 ± 0.037

## GACUGU
(6R,S)-folinic acid [1]
  normalized RNA/DNA level without ligand (log10): 1.98 ± 0.011
(6R,S)-folinic acid [2]
  normalized RNA/DNA level with ligand (log10): 1.98 ± 0.068

## GACUGG
(6R,S)-folinic acid [1]
  normalized RNA/DNA level without ligand (log10): 2.023 ± 0.018
(6R,S)-folinic acid [2]
  normalized RNA/DNA level with ligand (log10): 2.018 ± 0.018

## UACCCC
(6R,S)-folinic acid [1]
  normalized RNA/DNA level without ligand (log10): 2.03 ± 0.024
(6R,S)-folinic acid [2]
  normalized RNA/DNA level with ligand (log10): 2.022 ± 0.017

## UACCCA
(6R,S)-folinic acid [1]
  normalized RNA/DNA level without ligand (log10): 2.0351 ± 0.0019
(6R,S)-folinic acid [2]
  normalized RNA/DNA level with ligand (log10): 2.02 ± 0.034

## UACCCU
(6R,S)-folinic acid [1]
  normalized RNA/DNA level without ligand (log10): 2.032 ± 0.0098
(6R,S)-folinic acid [2]
  normalized RNA/DNA level with ligand (log10): 2 ± 0.041

## GAGCCC
(6R,S)-folinic acid [1]
  normalized RNA/DNA level without ligand (log10): 2.023 ± 0.013
(6R,S)-folinic acid [2]
  normalized RNA/DNA level with ligand (log10): 2.02 ± 0.053

## UAGAAC
(6R,S)-folinic acid [1]
  normalized RNA/DNA level without ligand (log10): 1.979 ± 0.012
(6R,S)-folinic acid [2]
  normalized RNA/DNA level with ligand (log10): 2 ± 0.033

## AAGCGC
(6R,S)-folinic acid [1]
  normalized RNA/DNA level without ligand (log10): 2.025 ± 0.0081
(6R,S)-folinic acid [2]
  normalized RNA/DNA level with ligand (log10): 2.03 ± 0.05

## AAGCGA
(6R,S)-folinic acid [1]
  normalized RNA/DNA level without ligand (log10): 1.95 ± 0.02
(6R,S)-folinic acid [2]
  normalized RNA/DNA level with ligand (log10): 2.02 ± 0.048

## CAGAAC
(6R,S)-folinic acid [1]
  normalized RNA/DNA level without ligand (log10): 2.003 ± 0.0049
(6R,S)-folinic acid [2]
  normalized RNA/DNA level with ligand (log10): 2.02 ± 0.056

## CAGAAG
(6R,S)-folinic acid [1]
  normalized RNA/DNA level without ligand (log10): 1.925 ± 0.006
(6R,S)-folinic acid [2]
  normalized RNA/DNA level with ligand (log10): 2.02 ± 0.03

## UAGCCC
(6R,S)-folinic acid [1]
  normalized RNA/DNA level without ligand (log10): 2.0516 ± 0.00055
(6R,S)-folinic acid [2]
  normalized RNA/DNA level with ligand (log10): 2.03 ± 0.006

## UAGCCA
(6R,S)-folinic acid [1]
  normalized RNA/DNA level without ligand (log10): 2.034 ± 0.011
(6R,S)-folinic acid [2]
  normalized RNA/DNA level with ligand (log10): 2.046 ± 0.019

## GAGAAU
(6R,S)-folinic acid [1]
  normalized RNA/DNA level without ligand (log10): 1.973 ± 0.0097
(6R,S)-folinic acid [2]
  normalized RNA/DNA level with ligand (log10): 2.02 ± 0.051

## GACCUU
(6R,S)-folinic acid [1]
  normalized RNA/DNA level without ligand (log10): 2.079 ± 0.013
(6R,S)-folinic acid [2]
  normalized RNA/DNA level with ligand (log10): 2.04 ± 0.028

## GACCUG
(6R,S)-folinic acid [1]
  normalized RNA/DNA level without ligand (log10): 2.06 ± 0.023
(6R,S)-folinic acid [2]
  normalized RNA/DNA level with ligand (log10): 2.03 ± 0.027

## GACCUA
(6R,S)-folinic acid [1]
  normalized RNA/DNA level without ligand (log10): 2.05 ± 0.0099
(6R,S)-folinic acid [2]
  normalized RNA/DNA level with ligand (log10): 2.05 ± 0.035

## GACCUC
(6R,S)-folinic acid [1]
  normalized RNA/DNA level without ligand (log10): 2.06 ± 0.0084
(6R,S)-folinic acid [2]
  normalized RNA/DNA level with ligand (log10): 2.044 ± 0.0024

## UACUCU
(6R,S)-folinic acid [1]
  normalized RNA/DNA level without ligand (log10): 2.027 ± 0.0077
(6R,S)-folinic acid [2]
  normalized RNA/DNA level with ligand (log10): 2.05 ± 0.028

## UACUCG
(6R,S)-folinic acid [1]
  normalized RNA/DNA level without ligand (log10): 1.8448 ± 0.00067
(6R,S)-folinic acid [2]
  normalized RNA/DNA level with ligand (log10): 1.99 ± 0.031

## UACUCC
(6R,S)-folinic acid [1]
  normalized RNA/DNA level without ligand (log10): 2.051 ± 0.012
(6R,S)-folinic acid [2]
  normalized RNA/DNA level with ligand (log10): 2.034 ± 0.0051

## UACUCA
(6R,S)-folinic acid [1]
  normalized RNA/DNA level without ligand (log10): 1.9962 ± 0.00016
(6R,S)-folinic acid [2]
  normalized RNA/DNA level with ligand (log10): 1.98 ± 0.038

## GACCGC
(6R,S)-folinic acid [1]
  normalized RNA/DNA level without ligand (log10): 2.0652 ± 0.00035
(6R,S)-folinic acid [2]
  normalized RNA/DNA level with ligand (log10): 2.018 ± 0.011

## GACCGG
(6R,S)-folinic acid [1]
  normalized RNA/DNA level without ligand (log10): 2.08 ± 0.053
(6R,S)-folinic acid [2]
  normalized RNA/DNA level with ligand (log10): 2.0517 ± 0.0019

## GACCGU
(6R,S)-folinic acid [1]
  normalized RNA/DNA level without ligand (log10): 2.03 ± 0.029
(6R,S)-folinic acid [2]
  normalized RNA/DNA level with ligand (log10): 2.01 ± 0.023

## GACCGA
(6R,S)-folinic acid [1]
  normalized RNA/DNA level without ligand (log10): 2.09 ± 0.0085
(6R,S)-folinic acid [2]
  normalized RNA/DNA level with ligand (log10): 2.033 ± 0.011

## CACACG
(6R,S)-folinic acid [1]
  normalized RNA/DNA level without ligand (log10): 2.0281 ± 0.00028
(6R,S)-folinic acid [2]
  normalized RNA/DNA level with ligand (log10): 2.04 ± 0.036

## CACACC
(6R,S)-folinic acid [1]
  normalized RNA/DNA level without ligand (log10): 2.061 ± 0.0083
(6R,S)-folinic acid [2]
  normalized RNA/DNA level with ligand (log10): 2 ± 0.073

## AACCGC
(6R,S)-folinic acid [1]
  normalized RNA/DNA level without ligand (log10): 2.04 ± 0.029
(6R,S)-folinic acid [2]
  normalized RNA/DNA level with ligand (log10): 2.013 ± 0.019

## AACCGU
(6R,S)-folinic acid [1]
  normalized RNA/DNA level without ligand (log10): 1.9935 ± 0.00042
(6R,S)-folinic acid [2]
  normalized RNA/DNA level with ligand (log10): 2 ± 0.032

## AACCGA
(6R,S)-folinic acid [1]
  normalized RNA/DNA level without ligand (log10): 1.998 ± 0.014
(6R,S)-folinic acid [2]
  normalized RNA/DNA level with ligand (log10): 1.99 ± 0.051

## GAGCGC
(6R,S)-folinic acid [1]
  normalized RNA/DNA level without ligand (log10): 2.002 ± 0.017
(6R,S)-folinic acid [2]
  normalized RNA/DNA level with ligand (log10): 2.03 ± 0.054

## UACACC
(6R,S)-folinic acid [1]
  normalized RNA/DNA level without ligand (log10): 2.025 ± 0.011
(6R,S)-folinic acid [2]
  normalized RNA/DNA level with ligand (log10): 1.99 ± 0.048

## UACACU
(6R,S)-folinic acid [1]
  normalized RNA/DNA level without ligand (log10): 2.017 ± 0.0061
(6R,S)-folinic acid [2]
  normalized RNA/DNA level with ligand (log10): 2.03 ± 0.037

## AACACU
(6R,S)-folinic acid [1]
  normalized RNA/DNA level without ligand (log10): 2 ± 0.032
(6R,S)-folinic acid [2]
  normalized RNA/DNA level with ligand (log10): 2 ± 0.043

## AACACA
(6R,S)-folinic acid [1]
  normalized RNA/DNA level without ligand (log10): 1.99 ± 0.011
(6R,S)-folinic acid [2]
  normalized RNA/DNA level with ligand (log10): 2.01 ± 0.037

## AACACC
(6R,S)-folinic acid [1]
  normalized RNA/DNA level without ligand (log10): 2.046 ± 0.015
(6R,S)-folinic acid [2]
  normalized RNA/DNA level with ligand (log10): 2.05 ± 0.086

## GAAUCU
(6R,S)-folinic acid [1]
  normalized RNA/DNA level without ligand (log10): 2.011 ± 0.0071
(6R,S)-folinic acid [2]
  normalized RNA/DNA level with ligand (log10): 2.04 ± 0.037

## UACUUC
(6R,S)-folinic acid [1]
  normalized RNA/DNA level without ligand (log10): 2.0503 ± 0.00055
(6R,S)-folinic acid [2]
  normalized RNA/DNA level with ligand (log10): 2.03 ± 0.042

## UACUUU
(6R,S)-folinic acid [1]
  normalized RNA/DNA level without ligand (log10): 2.001 ± 0.0048
(6R,S)-folinic acid [2]
  normalized RNA/DNA level with ligand (log10): 2.03 ± 0.042

## UACUUA
(6R,S)-folinic acid [1]
  normalized RNA/DNA level without ligand (log10): 1.9834 ± 0.00066
(6R,S)-folinic acid [2]
  normalized RNA/DNA level with ligand (log10): 2.01 ± 0.0084

## AACGUC
(6R,S)-folinic acid [1]
  normalized RNA/DNA level without ligand (log10): 2.066 ± 0.014
(6R,S)-folinic acid [2]
  normalized RNA/DNA level with ligand (log10): 2.04 ± 0.021

## GAAUGU
(6R,S)-folinic acid [1]
  normalized RNA/DNA level without ligand (log10): 1.988 ± 0.015
(6R,S)-folinic acid [2]
  normalized RNA/DNA level with ligand (log10): 2.01 ± 0.035

## GAAUGC
(6R,S)-folinic acid [1]
  normalized RNA/DNA level without ligand (log10): 1.943 ± 0.012
(6R,S)-folinic acid [2]
  normalized RNA/DNA level with ligand (log10): 2 ± 0.036

## CAGAGA
(6R,S)-folinic acid [1]
  normalized RNA/DNA level without ligand (log10): 1.999 ± 0.019
(6R,S)-folinic acid [2]
  normalized RNA/DNA level with ligand (log10): 2.01 ± 0.045

## CAGAGC
(6R,S)-folinic acid [1]
  normalized RNA/DNA level without ligand (log10): 2.013 ± 0.01
(6R,S)-folinic acid [2]
  normalized RNA/DNA level with ligand (log10): 2.01 ± 0.028

## CAGAGU
(6R,S)-folinic acid [1]
  normalized RNA/DNA level without ligand (log10): 1.996 ± 0.0082
(6R,S)-folinic acid [2]
  normalized RNA/DNA level with ligand (log10): 2.02 ± 0.035

## GACAGC
(6R,S)-folinic acid [1]
  normalized RNA/DNA level without ligand (log10): 2.002 ± 0.0097
(6R,S)-folinic acid [2]
  normalized RNA/DNA level with ligand (log10): 2.03 ± 0.046

## GACAGU
(6R,S)-folinic acid [1]
  normalized RNA/DNA level without ligand (log10): 1.99 ± 0.025
(6R,S)-folinic acid [2]
  normalized RNA/DNA level with ligand (log10): 2 ± 0.053

## CACUUG
(6R,S)-folinic acid [1]
  normalized RNA/DNA level without ligand (log10): 2.032 ± 0.0036
(6R,S)-folinic acid [2]
  normalized RNA/DNA level with ligand (log10): 2.03 ± 0.0041

## CACUUU
(6R,S)-folinic acid [1]
  normalized RNA/DNA level without ligand (log10): 1.985 ± 0.013
(6R,S)-folinic acid [2]
  normalized RNA/DNA level with ligand (log10): 1.98 ± 0.036

## CACUUC
(6R,S)-folinic acid [1]
  normalized RNA/DNA level without ligand (log10): 2.04 ± 0.03
(6R,S)-folinic acid [2]
  normalized RNA/DNA level with ligand (log10): 2.026 ± 0.012

## CACUUA
(6R,S)-folinic acid [1]
  normalized RNA/DNA level without ligand (log10): 1.952 ± 0.0058
(6R,S)-folinic acid [2]
  normalized RNA/DNA level with ligand (log10): 1.97 ± 0.058

## UACGUA
(6R,S)-folinic acid [1]
  normalized RNA/DNA level without ligand (log10): 1.918 ± 0.0029
(6R,S)-folinic acid [2]
  normalized RNA/DNA level with ligand (log10): 1.98 ± 0.037

## UACGUU
(6R,S)-folinic acid [1]
  normalized RNA/DNA level without ligand (log10): 1.971 ± 0.0048
(6R,S)-folinic acid [2]
  normalized RNA/DNA level with ligand (log10): 1.997 ± 0.014

## UACGUC
(6R,S)-folinic acid [1]
  normalized RNA/DNA level without ligand (log10): 2.07 ± 0.019
(6R,S)-folinic acid [2]
  normalized RNA/DNA level with ligand (log10): 2.06 ± 0.066

## CACUCU
(6R,S)-folinic acid [1]
  normalized RNA/DNA level without ligand (log10): 2.057 ± 0.015
(6R,S)-folinic acid [2]
  normalized RNA/DNA level with ligand (log10): 2.043 ± 0.018
